We go through seven molecules from paper PMC7261166.

T1: SA2 (STAG2) (UniProt Q8N3U4 1-1231)
T1 sequence: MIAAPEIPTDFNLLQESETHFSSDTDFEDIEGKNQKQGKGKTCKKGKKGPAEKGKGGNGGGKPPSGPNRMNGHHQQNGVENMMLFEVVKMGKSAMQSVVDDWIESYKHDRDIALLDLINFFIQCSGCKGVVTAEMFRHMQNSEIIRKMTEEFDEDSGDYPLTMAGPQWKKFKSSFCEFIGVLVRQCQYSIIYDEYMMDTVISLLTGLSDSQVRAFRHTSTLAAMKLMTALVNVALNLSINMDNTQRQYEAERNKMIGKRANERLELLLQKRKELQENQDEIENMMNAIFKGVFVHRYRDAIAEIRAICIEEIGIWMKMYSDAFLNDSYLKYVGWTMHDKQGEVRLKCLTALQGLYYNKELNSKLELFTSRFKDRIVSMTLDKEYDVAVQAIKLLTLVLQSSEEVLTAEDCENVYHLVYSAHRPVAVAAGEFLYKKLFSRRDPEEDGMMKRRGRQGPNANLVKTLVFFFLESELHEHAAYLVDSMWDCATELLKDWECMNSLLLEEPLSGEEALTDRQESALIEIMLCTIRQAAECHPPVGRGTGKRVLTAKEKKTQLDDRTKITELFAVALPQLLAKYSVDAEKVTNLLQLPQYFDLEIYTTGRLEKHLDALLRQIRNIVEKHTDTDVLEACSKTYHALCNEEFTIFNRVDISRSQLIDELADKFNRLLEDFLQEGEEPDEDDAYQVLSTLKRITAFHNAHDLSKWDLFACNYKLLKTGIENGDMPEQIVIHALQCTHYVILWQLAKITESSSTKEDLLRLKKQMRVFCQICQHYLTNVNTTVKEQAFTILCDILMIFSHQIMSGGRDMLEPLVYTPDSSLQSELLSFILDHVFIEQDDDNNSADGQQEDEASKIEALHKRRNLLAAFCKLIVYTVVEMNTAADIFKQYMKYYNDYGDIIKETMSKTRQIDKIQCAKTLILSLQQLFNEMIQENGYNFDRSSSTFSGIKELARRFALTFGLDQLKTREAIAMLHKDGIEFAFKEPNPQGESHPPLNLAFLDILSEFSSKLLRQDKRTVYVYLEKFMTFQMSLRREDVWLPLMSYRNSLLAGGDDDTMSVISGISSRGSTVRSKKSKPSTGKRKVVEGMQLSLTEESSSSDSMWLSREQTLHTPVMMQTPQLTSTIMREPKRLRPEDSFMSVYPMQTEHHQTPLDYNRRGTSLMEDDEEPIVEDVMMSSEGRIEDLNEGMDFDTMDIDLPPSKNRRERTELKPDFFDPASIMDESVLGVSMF

T2: SA1 (STAG1) (UniProt Q8WVM7 1-1258)
T2 sequence: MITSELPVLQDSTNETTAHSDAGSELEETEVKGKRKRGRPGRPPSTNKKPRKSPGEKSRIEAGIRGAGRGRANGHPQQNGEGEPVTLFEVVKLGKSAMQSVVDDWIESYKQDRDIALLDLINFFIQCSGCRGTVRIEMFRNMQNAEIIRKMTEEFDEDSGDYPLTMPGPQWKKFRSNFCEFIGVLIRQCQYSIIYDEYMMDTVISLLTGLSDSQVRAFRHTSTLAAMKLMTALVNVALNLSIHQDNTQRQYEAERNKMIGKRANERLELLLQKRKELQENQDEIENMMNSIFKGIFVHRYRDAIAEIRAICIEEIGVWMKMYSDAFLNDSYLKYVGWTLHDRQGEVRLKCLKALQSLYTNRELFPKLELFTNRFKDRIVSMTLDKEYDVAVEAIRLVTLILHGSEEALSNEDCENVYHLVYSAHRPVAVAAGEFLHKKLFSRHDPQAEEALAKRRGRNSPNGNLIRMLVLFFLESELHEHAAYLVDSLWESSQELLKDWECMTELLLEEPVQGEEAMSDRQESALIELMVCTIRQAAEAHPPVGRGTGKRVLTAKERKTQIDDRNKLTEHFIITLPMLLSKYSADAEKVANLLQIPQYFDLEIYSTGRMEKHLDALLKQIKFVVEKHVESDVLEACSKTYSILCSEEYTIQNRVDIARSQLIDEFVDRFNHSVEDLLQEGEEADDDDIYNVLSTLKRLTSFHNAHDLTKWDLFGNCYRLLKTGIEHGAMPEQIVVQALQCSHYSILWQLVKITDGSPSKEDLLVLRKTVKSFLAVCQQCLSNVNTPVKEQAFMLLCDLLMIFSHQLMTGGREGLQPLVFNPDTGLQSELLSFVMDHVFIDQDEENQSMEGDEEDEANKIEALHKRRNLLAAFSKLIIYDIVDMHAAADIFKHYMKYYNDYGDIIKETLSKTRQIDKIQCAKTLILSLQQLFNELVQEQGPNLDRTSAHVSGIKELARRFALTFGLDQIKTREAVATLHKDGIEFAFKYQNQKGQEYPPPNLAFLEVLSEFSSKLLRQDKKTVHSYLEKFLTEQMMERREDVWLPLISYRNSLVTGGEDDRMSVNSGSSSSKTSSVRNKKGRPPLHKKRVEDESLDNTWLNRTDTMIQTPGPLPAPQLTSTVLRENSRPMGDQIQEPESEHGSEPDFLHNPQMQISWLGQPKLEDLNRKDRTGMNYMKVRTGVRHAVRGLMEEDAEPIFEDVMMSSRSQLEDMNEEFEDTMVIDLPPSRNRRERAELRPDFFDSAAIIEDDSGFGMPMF

B1: Model R-loop (mixed)
RNA: GCAGCUGGCACGACAGGUAUGAAUC
DNA 1: GCCAGGGACGAGGTGAACCTGCAGGTGGGCGGCTACTACTTAGATGTCATCCGAGGCTTATTGGTAGAATTCGGCAGCGTCATGCGACGGC
DNA 2: GCCGTCGCATGACGCTGCCGAATTCTACCACGCGATTCATACCTGTCGTGCCAGCTGCTTTGCCCACCTGCAGGTTCACCTCGTCCCTGGC
B2: RNA:DNA hybrid (45 bp) (DNA:RNA)
RNA: CUGGAUCCGUACAGUGUAAGGGUGAGUGGUUGGGUGUGUGGGUGU
DNA: ACACCCACACACCCAACCACTCACCCTTACACTGTACGGATCCAG
B3: 66 nt RNA-1 (ssRNA)
RNA: CUGGAUCCGUACAGUGUAAGGGUGAGUGGUUGGGUGUGUGGGUGUUGAUGUAGAACAAGAAUUCGA
B4: 25 nt RNA (R-loop oligo) (ssRNA)
RNA: GCAGCUGGCACGACAGGUAUGAAUC
B5: 66 nt RNA-2 (ssRNA)
RNA: UCGAAUUCUUGUUCUACAUCAACACCCACACACCCAACCACUCACCCUUACACUGUACGGAUCCAG
B6: 45 nt RNA (ssRNA)
RNA: B2 RNA
B7: RNA:DNA hybrid (25 bp) (DNA:RNA)
RNA: GCAGCUGGCACGACAGGUAUGAAUC
DNA: GATTCATACCTGTCGTGCCAGCTGC

The first data set deals with EWSR1 (UniProt Q01844 1-656). As to the kind of experiment: fluorescence anisotropy. (In general: Fluorescence polarisation rises when a labelled molecule tumbles more slowly, as on binding a larger partner.)
EWSR1, sequence (Q01844 whole entry): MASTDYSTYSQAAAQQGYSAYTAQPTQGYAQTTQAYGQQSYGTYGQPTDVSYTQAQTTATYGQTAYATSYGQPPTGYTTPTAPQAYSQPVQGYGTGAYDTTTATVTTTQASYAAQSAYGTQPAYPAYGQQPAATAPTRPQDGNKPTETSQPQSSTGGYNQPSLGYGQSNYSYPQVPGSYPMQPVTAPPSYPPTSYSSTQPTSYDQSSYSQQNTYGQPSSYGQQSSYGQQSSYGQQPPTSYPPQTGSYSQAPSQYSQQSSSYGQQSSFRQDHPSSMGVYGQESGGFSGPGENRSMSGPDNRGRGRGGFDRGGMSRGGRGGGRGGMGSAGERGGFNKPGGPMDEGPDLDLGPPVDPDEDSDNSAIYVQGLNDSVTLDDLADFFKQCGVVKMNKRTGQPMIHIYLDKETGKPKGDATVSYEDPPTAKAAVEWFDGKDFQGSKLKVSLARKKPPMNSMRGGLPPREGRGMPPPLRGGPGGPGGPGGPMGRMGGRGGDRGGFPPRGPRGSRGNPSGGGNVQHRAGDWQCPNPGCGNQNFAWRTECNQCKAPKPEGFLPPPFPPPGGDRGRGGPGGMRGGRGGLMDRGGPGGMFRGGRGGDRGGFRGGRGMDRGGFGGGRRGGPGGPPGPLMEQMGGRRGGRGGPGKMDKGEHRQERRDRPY
Broadly, the Kd is the free concentration of one partner at which half of the binding sites on the other are occupied at equilibrium, for simple one-to-one binding. Lower therefore signals tighter binding. As for B1, binding was put at a Kd of 28.6 ± 0.8 nM.

In turn, B2 showed a Kd of 27.7 ± 4.1 nM.

Molecule B3 displayed a Kd of 35.1 ± 1.8 nM.

In the case of B4, the Kd came to 134.2 ± 0.04 nM.

Another data set has as its target T1, SA2 (STAG2). As to the kind of experiment: fluorescence anisotropy.
B1 showed an equilibrium dissociation constant (Kd) of 36 ± 4 nM.

Take B5: the dissociation constant Kd came out at 5.1 ± 0.6 nM.

With B2, the Kd amounted to 31.7 ± 1.5 nM.

Take B6: the equilibrium dissociation constant (Kd) was found to be 11.4 ± 1.2 nM.

Regarding B7, the affinity, expressed as Kd, was 43.3 ± 5.6 nM.

B3 showed a dissociation constant (Kd) of 7.2 ± 2.5 nM.

B4 gave a dissociation constant Kd of 251 ± 3.2 nM. This Kd is about 35-fold higher than that of the molecule before.

For the next data set, the target named is T2, SA1 (STAG1). Put plainly: fluorescence anisotropy.
B1 registered a Kd of 38.4 ± 8.7 nM.

On to B5, for which the dissociation constant (Kd) was determined as 3 ± 0.1 nM. This Kd lies about 13-fold lower than the previous one.

B2 displayed a dissociation constant Kd of 44 ± 5.9 nM.

The molecule B6 yielded a dissociation constant Kd of 6 ± 0.6 nM.

For the molecule B7, the Kd amounted to 58.6 ± 1.5 nM.

In turn, B3 registered a Kd of 3.2 ± 0.3 nM.

The molecule B4 registered a Kd of 164 ± 37.4 nM. This Kd lies about 51-fold higher than the previous one.
